The values that follow come from patent publication US20250346646A1, “COMPOUNDS USEFUL TO TREAT METABOLIC DISORDERS” (President and Fellows of Harvard College, priority 2016, published 2025).

The assay relates to diet induced obese (DIO) mice. Nature of the assay: Antibody treatment of obese mice on high-fat diet (fasting glucose, GTT, ITT). Format: in vivo, mouse. The note with it: obese mice on HFD. As to the method:
FIG. 9B is bar graph showing blood glucose levels (mg/dL) at week 0 (open bars) or week 4 (solid bars) in obese mice on a high-fat diet (HFD) treated with vehicle or anti-aP2 monoclonal antibodies CA33, CA13, CA15, CA23, or H3. Blood glucose levels were measured after 6 hours of day-time food withdrawal. *p<0.05, **p<0.01.
The test was performed after 2 weeks of treatment in obese mice on HFD with vehicle (diamonds) or anti-aP2 monoclonal antibodies (0.75 g/kg glucose)(CA33; squares)(CA15; triangles). *p<0.05.
FIG. 12A is a line graph showing glucose levels (mg/dL) vs. time (minutes) in a glucose tolerance test (GTT) following two weeks of selective antibody treatment using high affinity antibodies (CA13, CA15, CA23, and H3) versus vehicle control in high fat diet fed mice.
FIG. 12B is a line graph showing glucose levels (mg/dl) vs. time (minutes) in an insulin tolerance test (ITT) following three weeks of selective antibody treatment using high affinity antibodies (CA13, CA15, CA23, and H3) versus vehicle control in high fat diet fed mice.
Animal care and experimental procedures were performed with approval from animal care committees of Harvard University. Male mice (leptin-deficient (ob/ob) and diet induced obese (DIO) mice with C57BL/6J background) were purchased from The Jackson Laboratory (Bar Harbor, ME) and kept on a 12-hour light/dark cycle. […] Body weights were measured weekly in the fed state. Blood glucose levels were measured weekly after 6 hours of food withdrawal or after 16 hours overnight fast. […]
Twenty-four hours post transfection a bolus feed was added and the temperature was reduced to 32° C. and maintained for the duration of the culture period (12-14 days). […] The UV absorbance peak at A280 nm was collected during elution from the column using 0.1M sodium citrate pH 3.4 elution buffer and then neutralized to pH 7.4 by addition of 2M Tris-HCl pH 8.5. […]

B1: CA33: low-affinity anti-aP2 monoclonal antibody, rabbit-mouse hybrid, produced and purified by UCB; VL Seq. ID 28, VH Seq. ID 41 (antibody, V domains shown)
VH: QSVEESGGRLVTPGTPLTLTCTVSGFSLSTYYMSWVRQAPGKGLEWIGIIYPSGSTYCASWAKGRFTISKASTTVDLKITSPTTEDTATYFCARPDNDGTSGYLSGFGLWGQGTLVTVSS
VL: DVVMTQTPASVSEPVGGTVTIKCQASEDISRYLVWYQQKPGQPPKRLIYKASTLASGVPSRFKGSGSGTDFTLTISDLECDDAATYYCQCTYGTYAGSFFYSFGGGTEVVVE
modifications: Rabbit Ab 909 VH region; Rabbit Ab 909 VL-region
On to B1, for which the Fasting blood glucose entry (33 mg/kg s.c. twice weekly, week 4 vs week 0, 6 hours food withdrawal) is listed as “significantly decreased”. Also, where the note is “after 2 weeks of treatment, 0.75 g/kg glucose”, the “Glucose tolerance (GTT)” value is listed as “significantly improved glucose tolerance”. Moreover, the “Insulin sensitivity (insulin tolerance test)” value (after 3 weeks of treatment) is on record as “markedly improved insulin sensitivity”.
